Laboratory results published in patent publication US20250312467A1.

Target: Her2 (UniProt P04626)
Test: cell-based or functional assay

antibody-payload conjugate (ADC, trastuzumab-DM1 conjugate)
IC50, in vitro cytotoxicity on BT474 cells: 0.0296 µg/mL | IC50, in vitro cytotoxicity on NCI-N87 cells: 0.0821 µg/mL
